Test results: PMC10397247

What was measured:
Assay in all cases: two-hybrid library CCmax;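 further: natural log of median RNA to DNA barcode read ratio; higher means stronger binding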
[1] = biological target: T1, 4H2274-AA; settings: mean of both orientations
T1 chain: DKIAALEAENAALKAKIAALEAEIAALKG

[2] = biological target: T2, 4H3016-AA; settings: mean of both orientations
T2 chain: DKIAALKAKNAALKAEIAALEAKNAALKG

[3] = biological target: T3, 4H3381-AA; settings: mean of both orientations
T3 chain: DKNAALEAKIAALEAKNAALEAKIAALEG

[4] = biological target: T4, 4H629-AA; settings: mean of both orientations
T4 chain: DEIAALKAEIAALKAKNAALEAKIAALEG

[5] = biological target: T5, 4H1877-AA; settings: mean of both orientations
T5 chain: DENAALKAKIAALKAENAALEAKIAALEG

[6] = biological target: T6, 4H3590-AA; settings: mean of both orientations
T6 chain: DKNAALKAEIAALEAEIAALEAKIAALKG

[7] = biological target: T7, 4H3865-AA; settings: mean of both orientations
T7 chain: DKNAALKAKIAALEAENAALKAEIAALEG

[8] = biological target: T8, 4H850-AA; settings: mean of both orientations
T8 chain: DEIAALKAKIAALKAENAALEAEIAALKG

[9] = biological target: T9, 4H909-AA; settings: mean of both orientations
T9 chain: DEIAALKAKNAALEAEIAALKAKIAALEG

[10] = biological target: T10, 4H3130-AA
T10 chain: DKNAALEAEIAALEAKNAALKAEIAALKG

[11] = biological target: T11, 4H1626-AA; settings: mean of both orientations
T11 chain: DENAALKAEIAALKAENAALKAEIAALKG

[12] = biological target: T12, 4H2162-AA; settings: mean of both orientations
T12 chain: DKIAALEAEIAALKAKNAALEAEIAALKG

[13] = biological target: T13, 4H485-AA; settings: mean of both orientations
T13 chain: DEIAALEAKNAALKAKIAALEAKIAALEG

[14] = biological target: T14, 4H536-AA; settings: mean of both orientations
T14 chain: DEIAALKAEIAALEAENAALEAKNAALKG

[15] = biological target: T15, 4H3410-AA; settings: mean of both orientations
T15 chain: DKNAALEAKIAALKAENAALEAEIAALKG

[16] = biological target: T16, 4H930-AA; settings: mean of both orientations
T16 chain: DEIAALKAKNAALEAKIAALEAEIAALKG

[17] = biological target: T17, 4H3395-AA; settings: mean of both orientations
T17 chain: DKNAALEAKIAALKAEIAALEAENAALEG

[18] = biological target: T18, 4H710-AA; settings: mean of both orientations
T18 chain: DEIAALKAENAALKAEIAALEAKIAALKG

[19] = biological target: T19, 4H2649-AA; settings: mean of both orientations
T19 chain: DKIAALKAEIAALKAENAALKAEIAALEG

[20] = biological target: T20, 4H3009-AA; settings: mean of both orientations
T20 chain: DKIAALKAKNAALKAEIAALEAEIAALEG

[21] = biological target: T21, 4H797-AA; settings: mean of both orientations
T21 chain: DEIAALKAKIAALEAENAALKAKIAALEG

[22] = biological target: T22, 4H2473-AA; settings: mean of both orientations
T22 chain: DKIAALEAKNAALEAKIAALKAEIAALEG

[23] = biological target: T23, 4H2109-AA; settings: mean of both orientations
T23 chain: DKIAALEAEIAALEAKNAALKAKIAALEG

[24] = biological target: T24, 4H2698-AA; settings: mean of both orientations
T24 chain: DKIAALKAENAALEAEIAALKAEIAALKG

[25] = biological target: T25, 4H3753-AA; settings: mean of both orientations
T25 chain: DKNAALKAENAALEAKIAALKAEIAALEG

[26] = biological target: T26, 4H2253-AA; settings: mean of both orientations
T26 chain: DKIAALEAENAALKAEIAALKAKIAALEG

[27] = biological target: T27, 4H3697-AA; settings: mean of both orientations
T27 chain: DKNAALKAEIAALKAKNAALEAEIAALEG

[28] = biological target: T28, 4H3165-AA; settings: mean of both orientations
T28 chain: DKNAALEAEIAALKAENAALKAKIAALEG

[29] = biological target: T29, 4H2330-AA; settings: mean of both orientations
T29 chain: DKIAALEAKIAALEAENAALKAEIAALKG

[30] = biological target: T30, 4H891-AA; settings: mean of both orientations
T30 chain: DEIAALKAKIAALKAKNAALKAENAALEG

[31] = biological target: T31, 4H2725-AA; settings: mean of both orientations
T31 chain: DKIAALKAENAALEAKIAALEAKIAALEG

[32] = biological target: T32, 4H94-AA; settings: mean of both orientations
T32 chain: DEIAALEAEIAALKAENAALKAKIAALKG

[33] = biological target: T33, 4H2438-AA; settings: mean of both orientations
T33 chain: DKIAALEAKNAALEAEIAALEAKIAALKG

[34] = biological target: T34, 4H174-AA; settings: mean of both orientations
T34 chain: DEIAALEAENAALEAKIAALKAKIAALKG

[35] = biological target: T35, 4H570-AA; settings: mean of both orientations
T35 chain: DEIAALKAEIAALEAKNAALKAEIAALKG

[36] = biological target: T36, 4H745-AA; settings: mean of both orientations
T36 chain: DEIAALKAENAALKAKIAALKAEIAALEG

[37] = biological target: T37, 4H171-AA; settings: mean of both orientations
T37 chain: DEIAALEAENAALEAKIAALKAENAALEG

[38] = biological target: T38, 4H3120-AA; settings: mean of both orientations
T38 chain: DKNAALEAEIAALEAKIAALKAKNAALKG

[39] = biological target: T39, 4H310-AA; settings: mean of both orientations
T39 chain: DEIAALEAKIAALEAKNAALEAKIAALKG

[40] = biological target: T40, 4H1842-AA; settings: mean of both orientations
T40 chain: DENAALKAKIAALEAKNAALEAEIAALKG

[41] = biological target: T41, 4H1597-AA; settings: mean of both orientations
T41 chain: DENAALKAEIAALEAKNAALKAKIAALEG

[42] = biological target: T42, 4H2389-AA; settings: mean of both orientations
T42 chain: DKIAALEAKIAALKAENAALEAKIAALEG

[43] = biological target: T43, 4H458-AA; settings: mean of both orientations
T43 chain: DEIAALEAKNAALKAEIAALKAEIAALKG

[44] = biological target: T44, 4H1579-AA
T44 chain: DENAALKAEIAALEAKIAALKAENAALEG

[45] = biological target: T45, 4H2865-AA
T45 chain: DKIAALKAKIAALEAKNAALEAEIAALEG

[46] = biological target: T46, 4H1864-AA; settings: mean of both orientations
T46 chain: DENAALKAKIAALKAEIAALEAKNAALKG

interaction score [1]: -1.24
interaction score [2]: 0.0969
interaction score [3]: -1.48
interaction score [4]: -1.42
interaction score [5]: -0.858
interaction score [6]: 1.2
interaction score [7]: -1.22
interaction score [8]: -1.18
interaction score [9]: -1.94
interaction score [10]: -1.12
interaction score [11]: -1.19
interaction score [12]: -1.63
interaction score [13]: -0.986
interaction score [14]: 0.42
interaction score [15]: -1.51
interaction score [16]: -1.7
interaction score [17]: 0.656
interaction score [18]: -1.33
interaction score [19]: -1.11
interaction score [20]: -2.01
interaction score [21]: -1.46
interaction score [22]: -1.09
interaction score [23]: 0.8
interaction score [24]: -1.29
interaction score [25]: 1.01
interaction score [26]: -1.23
interaction score [27]: -1.92
interaction score [28]: -1.86
interaction score [29]: -1.81
interaction score [30]: -1
interaction score [31]: -1.31
interaction score [32]: -1.21
interaction score [33]: -1.18
interaction score [34]: -0.805
interaction score [35]: -0.453
interaction score [36]: 1.21
interaction score [37]: -1.67
interaction score [38]: 0.595
interaction score [39]: -1.28
interaction score [40]: -2.03
interaction score [41]: -0.651
interaction score [42]: -1.56
interaction score [43]: -1.8
interaction score [44]: 0.482
interaction score [45]: -1.53
interaction score [46]: 2.38
Binder: DENAALKAEIAALEAKIAALKAENAALEG [4H1579-AA]
